US20200362024A1, “BIOLOGICAL MATERIALS AND USES THEREOF” (IMPERIAL INNOVATIONS LIMITED, priority 2009, published 2020)

Legend:
[1] = tested on: MyD88 deficient mouse embryonic fibroblasts; assay: Cytokine synthesis in mouse embryonic fibroblasts from MyD88 deficient mice; assay type: cell-based; conditions: 24 h; FBG 1 μM, PAM3, LPS, TNFα 100 ng/ml, IL-1 5 ng/ml
From the text: Homozygous MyD88 deficient mice on a C57BL/6 background were provided by the Sanger Institute (Cambridge, UK). Age matched congenic inbred wild type C57B/L6 mice were obtained from Charles River (Margate, UK). For isolation of mouse embryo fibroblasts one female aged 8-10 weeks was mated with two males aged 8-10 weeks. For isolation of bone marrow derived macrophages mice were female and between 10-12 weeks of age at the time of experimentation.
MEFs express high levels of mRNA of all 9 murine TLRs and are specifically and highly responsive to TLR ligand activation. […] Fibroblasts were cultured at 2×10^4 cells/well in DMEM containing 10% (v/v) FBS and 100 U/ml penicillin/streptomycin in 96-well tissue culture plates for 24 hours before stimulation.
(§1) Cells were incubated for 24 hours at 37° C. with the indicated doses of tenascin-C and recombinant tenascin-C fragments (1.0 μM-1.0 nM). Cells were also stimulated where indicated with LPS (1 ng/ml for human macrophages, 10 ng/ml for human fibroblasts, RA membrane cells and HEKs, 100 ng/ml for MEFS and BMDMs and 10 ng/ml for HEKS), PAM3 (10 ng/ml for human macrophages, human fibroblasts, and HEKs, 100 ng/ml for MEFs and BMDMs), murine IL-1 (5 ng/ml for MEFS) and murine TNF-α (100 ng/ml for MEFS). Unless specifically stated otherwise rough LPS was used for in vitro studies.
(§2) Supernatants were subsequently examined for the presence of the cytokines TNF-α, IL-6, and IL-8 by enzyme-linked immunosorbent assay (ELISA) according to the manufacturer's instructions. Absorbance was read on a spectrophotometric ELISA plate reader (Labsystems Multiscan Biochromic, Vantaa, Finland) and analyzed using the Ascent software program (Thermo Labsystems, Altrincham, UK).

[2] = tested on: knee joint of wild type mice; assay: Intra-articular injection of FBG into the knee joint of wild type mice; assay type: in vivo
Description: Wild type mice were anesthetized by intraperitoneal injection of 150 μl of Hypnorm diluted 1:10 in sterile water and then injected with 100 ng, 1 or 3 μg FBG in 10 μl of sterile PBS into the right knee joint using a sterile 33-gauge microcannula. Control mice received an injection of 10 μl PBS alone or were not injected.
On days 3 and 7, mice were euthanized, the knee joints were excised and fixed in 10% (volume/volume) buffered formalin, decalcified, with 10% EDTA and processed to paraffin.
Coronal tissue sections (4 μm) were cut at 7 depths throughout the joint; 80 μm apart and stained with hematoxylin and eosin or Safranin-O to assess joint pathology.
Inflammation (the influx of inflammatory cells into synovium (infiltrate) and the joint cavity (exudates), was graded using an arbitrary scale from 0 (no inflammation) to 3 (severe inflammation). Chondrocyte death was determined as the percentage of cartilage area containing empty lacunae in relation to the total area. Cartilage surface erosion was determined as the amount of cartilage lost in relation to the total cartilage area. Bone destruction was determined in 10 different areas of the total knee joint section. Destruction was graded on a scale of 0 (no damage) to 3 (complete loss of bone structure). Histological analysis was performed by an investigator who was blinded to the experimental groups. The mean score for each animal in an experimental group was calculated by averaging the histopathologic scores in at least 5 section depths per joint.

[3] = tested on: RA synovial membrane cells; assay: Cytokine synthesis in RA synovial membrane cells stimulated with FBG; assay type: cell-based, human; conditions: FBG 1.0-0.01 μM, 24 h, over spontaneous production
From the text: RA membrane cells (representing a mixed population of all synovial cell types) were isolated from synovial membranes obtained from patients undergoing joint replacement surgery as previously described (Brennan (1989)). RA synovial fibroblasts were isolated from the mixed population of RA membrane cells as previously described (Brennan (1989)). The study was approved by the local Trust ethics committee (Riverside NHS Research Committee), and waste tissue (synovium after joint replacement surgery) was obtained only after receiving signed informed consent from the patient and anonymyzing the tissue to protect patient identity.
Immediately after isolation, RA membrane cells and macrophages were cultured at 1×10^5 cells/well in RPMI 1640 containing 10% (v/v) FBS and 100 U/ml (Units/ml) penicillin/streptomycin in 96-well tissue culture plates for 24 hours before stimulation. […]
as §2

[4] = tested on: primary human macrophages; assay: Cytokine synthesis in primary human macrophages stimulated with tenascin-C or its domains; assay type: cell-based
Description: Human monocytes were isolated from peripheral blood (London Blood Bank) and macrophages were derived from monocytes after differentiation for 4 days with 100 ng/ml of M-CSF as previously described (Foxwell (1998)).
Immediately after isolation, RA membrane cells and macrophages were cultured at 1×10^5 cells/well in RPMI 1640 containing 10% (v/v) FBS and 100 U/ml (Units/ml) penicillin/streptomycin in 96-well tissue culture plates for 24 hours before stimulation. Synovial fibroblasts (used only at either passage number 2 or 3) were cultured at 1×10^4 cells/well in DMEM containing 10% (v/v) FBS and 100 U/ml penicillin/streptomycin in 96-well tissue culture plates for 24 hours before stimulation.
as §1
Where stated, cells were pre-incubated with 10 μg/ml anti-CD14 antibody, 10 μg/ml IL1 receptor antagonist, 10 μg/ml anti-TLR2 antibody, 25 μg/ml anti-TLR4 antibody, 10 or 25 μg/ml isotype control antibody, 25 μg/ml polymyxin B, or 1 μg/ml msbB LPS, for 30 minutes at 37° C. before stimulation. Where stated, recombinant tenascin-C and FBG, and LPS were boiled for 15 minutes before addition to cells
as §2

MyD88 = assay: FBG induction of IL-6 in RA synovial fibroblasts infected with adenovirus expressing dominant negative MyD88; assay type: cell-based, human; conditions: FBG 1 μM, 24 h; GFP control virus without effect
From the text: Recombinant, replication-deficient adenoviral vectors encoding wild type MyD88 (AdMyD88 wt), dominant-negative forms of MyD88 (AdMyD88dn) and the GFP control (AdGFP) were constructed in-house. A description of the synthesis of these viruses is in Andreakos (2004). All viruses used in this study are E1/E3 deleted, belong to the Ad5 serotype. Viruses were propagated in 293 human embryonic kidney cells, purified by ultracentrifugation through two cesium chloride gradients, and viral titers determined by plaque assay as previously described (Sacre (2007)).
For adenoviral gene transfer experiments, human RA synovial fibroblasts were incubated with adenoviral vectors at a multiplicity of infection of 100, washed after 2 hours, cultured in complete medium for 24 hours, then stimulated for 24 hours, after which time supernatants were collected.
as §2

B1: FBG: recombinant fibrinogen-like globe, 227 amino acid globular domain at the C terminal of tenascin-C (protein)
chain: GLLYPFPKDCSQAMLNGDTTSGLYTIYLNGDKAEALEVFCDMTSDGGGWIVFLRRKNGRENFYQNWKAYAAGFGDRREEFWLGLDNLNKITAQGQYELRVDLRDHGETAFAVYDKFSVGDAKTRYKLKVEGYSGTAGDSMAYHNGRSFSTFDKDTDSAITNCALSYKGAFWYRNCHRVNLMGRYGDNNHSQGVNWFHWKGHEHSIQFAEMKLRPSNFRNLEGRRKRA
- cytokine synthesis in embryonic fibroblasts with targeted deletion of MyD88 [1]: does not stimulate
- joint histology ([2]; 100 ng FBG intra-articular): No inflammation or proteoglycan loss
- joint histology ([2]; 1 μg FBG intra-articular, 3 days): inflammatory cell infiltration (FIG. 6f), mild synovitis, pannus formation (FIG. 6g) and proteoglycan loss (FIG. 6h) was observed
- histological quantification: cartilage surface erosion and bone damage ([2]; 1 μg FBG, 3 days (FIG. 6i)): modest amount
- histological quantification: cellular infiltrate and exudate and chondrocyte death ([2]; 1 μg FBG, 3 days (FIG. 6i)): high levels
- joint histology ([2]; 3 μg FBG intra-articular): A similar response
- joint inflammation ([2]; intra-articular 100 ng, 1 or 3 μg): transient and dose dependent stimulation of joint inflammation
- synthesis of IL-6, IL-8 and TNF-α in RA synovial membranes [3]: further enhanced
- TNF-α, IL-6 and IL-8 synthesis in human macrophages ([4]; 1.0 μM tenascin-C domains, 24 h): stimulated
- cytokine stimulation: heat sensitivity and effect of polymyxin B ([4]; boiled 15 minutes, 25 μg/ml polymyxin B pre-incubation, human macrophages and synovial fibroblasts): heat sensitive and unaffected by polymyxin B
- induction of IL-6 in synovial fibroblasts expressing dominant negative MyD88 (MyD88): abolished
